Source: patent US20260209348A1 (University of California, published 2026)

B1: h6E6-002 (antibody, V domains shown)
VH: EVQLVESGGGLVKPGGSLRLSCAASGFTFSSYGISWVRQAPGKGLEWVSTISSGGGYTHYAESVKGRFTISRDNAKNSLYLQMNSLRAEDTAVYYCARHPRDFSYAMDYWGQGTTVTVSS
VL: EIVMTQSPATLSVSPGERATLSCRASQDVGHYLAWYQQKPGQAPRLLIYWASTRHTGIPARFSGSGSGTEFTLTISSLQSEDFAVYYCQQYNIYPWTFGQGTKVEIK
notes: also called clone 2
B2: h6E6-009 (antibody, V domains shown)
VH: EVQLVESGGGLVKPGGSLRLSCAASGFTFSGYGMNWVRQAPGKGLEWVSTISSGGGYTHYAESVKGRFTISRDNAKNSLYLQMNSLRAEDTAVYYCARHPRDFSYAADYWGQGTTVTVSS
VL: EIVMTQSPATLSVSPGERATLSCKASQDVGHYLAWYQQKPGQAPRLLIYWASTRATGIPARFSGSGSGTEFTLTISSLQSEDFAVYYCQQYNIYPWTFGQGTKVEIK
notes: also called clone 9
B3: h6E6-038 (antibody, V domains shown)
VH: EVQLVESGGGLVKPGGSLRLSCAASGFTFSRYGMSWVRQAPGKGLEWVSTISSGGGYTHYAPSVKGRFTISRDNAKNSLYLQMNSPRAEDTAVYYCARHPRDFSYAQDYWGQGTTVTVSS
VL: EIVMTQSPATLSVSPGERATLSCKASQDVGHYLAWYQQKPGQAPRLLIYWASTRHTGIPARFSGSGSGTEFTLTISSLQSEDFAVYYCQQYNIYPWTFGQGTKVEIK
notes: also called clone 38
B4: h6E6-030 (antibody, V domains shown)
VH: EVQLVESGGGLVKPGGSLRLSCAASGFTFSSYGMSWVRQAPGKGLEWVSTISSGGGYTHYAASVKGRFTISRDNAKNSLYLQMNSLRAEDTAVYYCARHPRDFSYAMDYWGQGTTVTVSS
VL: EIVMTQSPATLSVSPGERATLSCKASQDVGHYLAWYQQKPGQAPRLLIYWASTRATGIPARFSGSGSGTEFTLTISSLQSEDFAVYYCQQYNIYPWTFGQGTKVEIK
notes: also called clone 30
B5: h6E6-015 (antibody, V domains shown)
VH: EVQLVESGGGLVKPGGSLRLSCAASGFTFSNYGLSWVRQAPGKGLEWVSTISSGGGYTHYVTSVKGRFTISRDNAKNSLYLQMNSLRAEDTAVYYCARHPRDFSYALDYWGQGTTVTVSS
VL: EIVMTQSPATLSVSPGERATLSCKASQDVGHYVAWYQQKPGQAPRLLIYWASTRHTGIPARFSGSGSGTEFTLTISSLQSEDFAVYYCQQYNIYPWTFGQGTKVEIK
notes: also called clone 15
B6: h6E6-003 (antibody, V domains shown)
VH: EVQLVESGGGLVKPGGSLRLSCAASGFTFSQYGTSWVRQAPGKGLEWVSTISSGGGYTHYAESVKGRFTISRDNAKNSLYLQMNSLRAEDTAVYYCARHPRDFSYAHDYWGQGTTVTVSS
VL: EIVMTQSPATLSVSPGERATLSCRASQDVGHYLAWYQQKPGQAPRLLIYWASTRHTGIPARFSGSGSGTEFTLTISSLQSEDFAVYYCQQYNIYPWTFGQGTKVEIK
notes: also called clone 3
B7: h6E6-032 (antibody, V domains shown)
VH: EVQLVESGGGLVKPGGSLRLSCAASGFTFSNYGTSWVRQAPGKGLEWVSTISSGGGYTHYAESVKGRFTISRDNAKNSLYLQMNSLRAEDTAVYYCARHPRDFSYAMDYWGQGTTVTVSS
VL: EIVMTQSPATLSVSPGERATLSCKASQDVGHYLAWYQQKPGQAPRLLIYWASTRATGIPARFSGSGSGTEFTLTISSLQSEDFAVYYCQQYNIYPWTFGQGTKVEIK
notes: also called clone 32
B8: h6E6-014 (antibody, V domains shown)
VH: EVQLVESGGGLVKPGGSLRLSCAASGFTFSSYGMNWVRQAPGKGLEWVSTISSGGGYTHYVDSVKGRFTISRDNAKNSLYLQMNSLRAEDTAVYYCARHPRDFSYATDYWGQGTTVTVSS
VL: EIVMTQSPATLSVSPGERATLSCRASQDVGHYVAWYQQKPGQAPRLLIYWASTRHTGIPARFSGSGSGTEFTLTISSLQSEDFAVYYCQQYNIYPWTFGQGTKVEIK
notes: also called clone 14
B9: h6E6-022 (antibody, V domains shown)
VH: EVQLVESGGGLVKPGGSLRLSCAASGFTFSKYGTSWVRQAPGKGLEWVSTISSGGGYTHYAPSVKGRFTISRDNAKNSLYLQMNSLRAEDTAVYYCARHPRDFSYAMDYWGQGTTVTVSS
VL: EIVMTQSPATLSVSPGERATLSCKASQDVGHYVAWYQQKPGQAPRLLIYWASTRATGIPARFSGSGSGTEFTLTISSLQSEDFAVYYCQQYNIYPWTFGQGTKVEIK
notes: also called clone 22
B10: h6E6-025 (antibody, V domains shown)
VH: EVQLVESGGGLVKPGGSLRLSCAASGFTFSHYGHSWVRQAPGKGLEWVSTISSGGGYTHYVESVKGRFTISRDNAKNSLYLQMNSLRAEDTAVYYCARHPRDFSYAMDYWGQGTTVTVSS
VL: EIVMTQSPATLSVSPGERATLSCRASQDVGHYVAWYQQKPGQAPRLLIYWASTRATGIPARFSGSGSGTEFTLTISSLQSEDFAVYYCQQYNIYPWTFGQGTKVEIK
notes: also called clone 25
B11: h6E6-006 (antibody, V domains shown)
VH: EVQLVESGGGLVKPGGSLRLSCAASGFTFSTYGMSWVRQAPGKGLEWVSTISSGGGYTHYATSVKGRFTISRDNAKNSLYLQMNSLRAEDTAVYYCARHPRDFSYAHDYWGQGTTVTVSS
VL: EIVMTQSPATLSVSPGERATLSCRASQDVGHYLAWYQQKPGQAPRLLIYWASTRATGIPARFSGSGSGTEFTLTISSLQSEDFAVYYCQQYNIYPWTFGQGTKVEIK
notes: also called clone 6
B12: h6E6-005 (antibody, V domains shown)
VH: EVQLVESGGGLVKPGGSLRLSCAASGFTFSGYGLSWVRQAPGKGLEWVSTISSGGGYTHYAASVKGRFTISRDNAKNSLYLQMNSLRAEDTAVYYCARHPRDFSYAMDYWGQGTTVTVSS
VL: EIVMTQSPATLSVSPGERATLSCKASQDVGHYVAWYQQKPGQAPRLLIYWASTRATGIPARFSGSGSGTEFTLTISSLQSEDFAVYYCQQYNIYPWTFGQGTKVEIK
notes: also called clone 5
B13: h6E6-020 (antibody, V domains shown)
VH: EVQLVESGGGLVKPGGSLRLSCAASGFTFSKYGVSWVRQAPGKGLEWVSTISSGGGYTHYAPSVKGRFTISRDNAKNSLYLQMNSLRAEDTAVYYCARHPRDFSYAMDYWGQGTTVTVSS
VL: EIVMTQSPATLSVSPGERATLSCKASQDVGHYLAWYQQKPGQAPRLLIYWASTRATGIPARFSGSGSGTEFTLTISSLQSEDFAVYYCQQYNIYPWTFGQGTKVEIK
notes: also called clone 20
B14: h6E6-017 (antibody, V domains shown)
VH: EVQLVESGGGLVKPGGSLRLSCAASGFTFSRYGMSWVRQAPGKGLEWVSSISSGGGYTHYAESVKGRFTISRDNAKNSLYLQMNSLRAEDTAVYYCARHPRDFSYAMDYWGQGTTVTVSS
VL: EIVMTQSPATLSVSPGERATLSCKASQDVGHYLAWYQQKPGQAPRLLIYWASTRHTGIPARFSGSGSGTEFTLTISSLQSEDFAVYYCQQYNIYPWTFGQGTKVEIK
notes: also called clone 17
B15: h6E6-033 (antibody, V domains shown)
VH: EVQLVESGGGLVKPGGSLRLSCAASGFTFSTYGMSWVRQAPGKGLEWVSTISSGGGYTHYVTSVKGRFTISRDNAKNSLYLQMNSLRAEDTAVYYCARHPRDFSYAMDYWGQGTTVTVSS
VL: EIVMTQSPATLSVSPGERATLSCKASQDVGHYVAWYQQKPGQAPRLLIYWASTRHTGIPARFSGSGSGTEFTLTISSLQSEDFAVYYCQQYNIYPWTFGQGTKVEIK
notes: also called clone 33
B16: h6E6-010 (antibody, V domains shown)
VH: EVQLVESGGGLVKPGGSLRLSCAASGFTFSNYGMSWVRQAPGKGLEWVSTISSGGGYTHYVASVKGRFTISRDNAKNSLYLQMNSLRAEDTAVYYCARHPRDFSYAMDYWGQGTTVTVSS
VL: EIVMTQSPATLSVSPGERATLSCKASQDVGHYLAWYQQKPGQAPRLLIYWASTRATGIPARFSGSGSGTEFTLTISSLQSEDFAVYYCQQYNIYPWTFGQGTKVEIK
notes: also called clone 10
B17: h6E6-031 (antibody, V domains shown)
VH: EVQLVESGGGLVKPGGSLRLSCAASGFTFSSYGMSWVRQAPGKGLEWVSTISSGGGYTHYAESVKGRFTISRDNDKNSLYLQMNSLRAEDTAVYYCARHPRDFSYAIDYWGQGTTVTVSS
VL: EIVMTQSPATLSVSPGERATLSCRASQDVGHYVAWYQQKPGQAPRLLIYWASTRHTGIPARFSGSGSGTEFTLTISSLQSEDFAVYYCQQYNIYPWTFGQGTKVEIK
notes: also called clone 31
B18: h6E6-026 (antibody, V domains shown)
VH: EVQLVESGGGLVKPGGSLRLSCAASGFTFSRYGMSWVRQAPGKGLEWVSTISSGGGYTHYAASVKGRFTISRDNAKNSLYLQMNSLRAEDTAVYYCARHPRDFSYAMDYWGQGTTVTVSS
VL: EIVMTQSPATLSVSPGERATLSCKASQDVGHYVAWYQQKPGQAPRLLIYWASTRHTGIPARFSGSGSGTEFTLTISSLQSEDFAVYYCQQYNIYPWTFGQGTKVEIK
notes: also called clone 26
B19: h6E6-023 (antibody, V domains shown)
VH: EVQLVESGGGLVKPGGSLRLSCAASGFTFSSYGMSWVRQAPGKGLEWVSTISSGGGYTHYAPSVKGRFTISRDNAKNSLYLQMNSLRAEDTAVYYCARHPRDFSYALDYWGQGTTVTVSS
VL: EIVMTQSPATLSVSPGERATLSCKASQDVGHYLAWYQQKPGQAPRLLIYWASTRATGIPARFSGSGSGTEFTLTISSLQSEDFAVYYCQQYNIYPWTFGQGTKVEIK
notes: also called clone 23
B20: h6E6-016 (antibody, V domains shown)
VH: EVQLVESGGGLVKPGGSLRLSCAASGFTFSAYGMSWVRQAPGKGLEWVSTISSGGGYTHYATSVKGRFTISRDNAKNSLYLQMNSLRAEDTAVYYCARHPRDFSYAQDYWGQGTTVTVSS
VL: EIVMTQSPATLSVSPGERATLSCKASQDVGHYVAWYQQKPGQAPRLLIYWASTRHTGIPARFSGSGSGTEFTLTISSLQSEDFAVYYCQQYNIYPWTFGQGTKVEIK
notes: also called clone 16
B21: h6E6-024 (antibody, V domains shown)
VH: EVQLVESGGGLVKPGGSLRLSCAASGFTFSEYGMSWVRQAPGKGLEWVSTISSGGGYTHYVESVKGRFTISRDNAKNSLYLQMNSLRAEDTAVYYCARHPRDFSYAMDYWGQGTTVTVSS
VL: EIVMTQSPATLSVSPGERATLSCRASQDVGHYVAWYQQKPGQAPRLLIYWASTRATGIPARFSGSGSGTEFTLTISSLQSEDFAVYYCQQYNIYPWTFGQGTKVEIK
notes: also called clone 24
B22: h6E6-012 (antibody, V domains shown)
VH: EVQLVESGGGLVKPGGSLRLSCAASGFTFSAYGASWVRQAPGKGLEWVSSISSGGGYTHYVESVKGRFTISRDNAKNSLYLQMNSLRAEDTAVYYCARHPRDFSYAQDYWGQGTTVTVSS
VL: EIVMTQSPATLSVSPGERATLSCRASQDVGHYLAWYQQKPGQAPRLLIYWASTRATGIPARFSGSGSGTEFTLTISSLQSEDFAVYYCQQYNIYPWTFGQGTKVEIK
notes: also called clone 12

Each binder was assayed against human ROR2 (human, UniProt Q01974 34-403, limits assumed) (assay: SPR).
Chain of human ROR2 (Q01974 34-403 limits assumed): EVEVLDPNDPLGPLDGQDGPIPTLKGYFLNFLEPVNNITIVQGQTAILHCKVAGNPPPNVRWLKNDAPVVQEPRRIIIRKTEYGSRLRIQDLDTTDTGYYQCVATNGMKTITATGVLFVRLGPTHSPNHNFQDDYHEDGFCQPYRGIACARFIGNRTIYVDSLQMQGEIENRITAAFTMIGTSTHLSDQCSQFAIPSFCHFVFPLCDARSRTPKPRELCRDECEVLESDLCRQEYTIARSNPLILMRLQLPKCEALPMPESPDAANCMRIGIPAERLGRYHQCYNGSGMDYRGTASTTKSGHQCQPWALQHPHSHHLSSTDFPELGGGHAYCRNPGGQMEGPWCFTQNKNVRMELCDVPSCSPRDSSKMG
Method in brief: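 Humanized anti-human ROR2 monoclonal antibodies were tested for binding to human ROR2 by surface plasmon resonance. The antibodies were made by grafting murine complementarity-determining regions into human acceptor frameworks, with the constant region converted to human IgG1. Binding affinity is reported as the dissociation constant (Kd) in nM. Antigen format, concentrations, temperature, buffer and replicates are not stated.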
B1 was tested, and the Kd was 0.284 nM.
Binder B2 has a Kd of 0.215 nM.
In the case of B3, the Kd is reported as 0.147 nM.
B4 was tested, and the Kd was 0.221 nM.
B5 was tested, and the Kd was 0.386 nM.
Binder B6 has a Kd of 0.321 nM.
Binder B7 has a Kd of 0.479 nM.
B8 was tested, and the Kd was 0.057 nM.
B9 showed a Kd of 0.271 nM.
For B10, the Kd was 0.509 nM.
Work on B11 yielded a Kd of 0.166 nM.
In the case of B12, the Kd is reported as 0.476 nM.
In the case of B13, the Kd is reported as 0.629 nM.
B14 showed a Kd of 4 nM.
Work on B15 yielded a Kd of 0.144 nM.
For B16, the Kd was 0.23 nM.
B17 gave a Kd of 0.103 nM.
Work on B18 yielded a Kd of 0.335 nM.
In the case of B19, the Kd is reported as 0.2 nM.
B20 was tested, and the Kd was 0.037 nM.
In the case of B21, the Kd is reported as 0.605 nM.
In the case of B22, the Kd is reported as 1.4 nM.
